# Patent publication US20190359687A1 (Bayer, published 2019)
# Residue numbers refer to the chain shown, from its start. In names and notes the source's numbering stands.
# T1: recombinant human GPA ectodomain (human, UniProt P02724 20-91)
# T1 construct: also called recombinant hGPA ECD; recGPA
# T1 sequence: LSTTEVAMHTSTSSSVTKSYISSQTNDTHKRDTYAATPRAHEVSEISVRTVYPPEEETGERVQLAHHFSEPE
# T2: human glycophorin A on human red blood cells or red blood cell membranes (human, UniProt P02724 20-150)
# T2 construct: whole, on cells; also called hRBC; human RBC membranes
# T2 sequence (looked up): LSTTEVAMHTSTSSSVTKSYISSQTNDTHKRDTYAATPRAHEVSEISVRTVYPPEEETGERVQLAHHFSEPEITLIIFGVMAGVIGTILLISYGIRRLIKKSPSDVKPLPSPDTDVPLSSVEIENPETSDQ
# T3: purified human glycophorin A protein (Sigma, cat # G5017) (human, UniProt P02724 20-150)
# T3 construct: mature; also called Sigma hGPA; Sigma GPA
# T3 sequence (looked up): T2 sequence (looked up)
# T4: native human glycophorin A protein (human, UniProt P02724 20-150)
# T4 construct: mature; also called Hu-nat GPA
# T4 sequence (looked up): T2 sequence (looked up)
# T5: recombinant human glycophorin A ectodomain protein (human, UniProt P02724 20-91)
# T5 construct: 72 amino acids of the extracellular region; also called Hu-rec GPA
# T5 sequence: T1 sequence
# T6: human glycophorin A in the red blood cell membrane (human, UniProt P02724 20-150)
# T6 construct: whole, on cells; used for intact RBC, isolated RBC membranes and transfected cells; the assay field tells which; also called GPA; hGPA
# T6 sequence (looked up): T2 sequence (looked up)
# B1: TPP-5347 (Fab, V domains shown)
# VH: EVQLVQSGAEVKKPGASVKVSCKASGYTFTTYTIHWVRQAPGQGLEWIGYINPSSDYTRYNPKFKDRVTLTTDKSTSTAYMELRSLRSDDTAVYYCQTGTRDYWGQGTTVTVSS
# VL: DIQLTQSPSFLSASVGDRVTITCSAASSVSYIYWYQQKPGKAPKLLIYSTSTLPSGVPSRFSGSGSGTEYTLTISSLQPEDFATYYCHQRNSFPFTFGQGTKLEIKR
# notes: also called VL: (F35Y)
# B2: TPP-5357 (Fab, V domains shown)
# VH: B1 VH
# VL: DIQLTQSPSFLSASVGDRVTITCRAASSVSSYIYWFQQKPGKAPKLLIYSTSTLPSGVPSRFSGSGSGTEYTLTISSLQPEDFATYYCHQRNSFPFTFGQGTKLEIKR
# notes: also called VL: (S24R)#
# B3: TPP-5354 (Fab, V domains shown)
# VH: B1 VH
# VL: B1 VL with Y35F, F93Y
# notes: also called VL: (F93Y)
# B4: TPP-5351 (Fab, V domains shown)
# VH: B1 VH
# VL: B1 VL with Y35F, Y70F
# notes: also called VL: (Y70F)
# B5: TPP-5355 (Fab, V domains shown)
# VH: B1 VH
# VL: B1 VL with Y35F, F95Y
# notes: also called VL: (F95Y)
# B6: TPP-5352 (Fab, V domains shown)
# VH: B1 VH
# VL: B1 VL with Y35F, H88Q
# notes: also called VL: (H88Q)
# B7: TPP-7791, affinity matured 6C12 Fab (Fab, V domains shown)
# VH: B1 VH with T33A, I48M, D56G, D66H, L70M, T72R, Q97W
# VL: DIQLTQSPSFLSASVGDRVTITCRASSSVRYIYWFQQKPGKAPKLLIYATSTLRSGVPSRFSGSGSGTEYTLTISSLQPEDFATYYCHQRNSFPYTFGQGTKLEIK
# notes: Tested as Fab
# B8: TPP-5704, Hu6C12-24 Fab variant VL: (N91D) (Fab, V domains shown)
# VH: B1 VH
# VL: B1 VL with Y35F, N91D
# notes: Built on the parental Fab TPP-4935
# B9: TPP-5677, Hu6C12-24 Fab variant VH: (I48M, D66G, L70M) (Fab, V domains shown)
# VH: B1 VH with I48M, D66G, L70M
# VL: B1 VL with Y35F
# notes: as for B8
# B10: TPP-5696, Hu6C12-24 Fab variant VH: (D66G, L70M) (Fab, V domains shown)
# VH: B1 VH with D66G, L70M
# VL: B1 VL with Y35F
# notes: as for B8
# B11: TPP-5700, Hu6C12-24 Fab variant VL: (S24R, A26S, F95Y) (Fab, V domains shown)
# VH: B1 VH
# VL: B1 VL with S24R, A26S, Y35F, F95Y
# notes: as for B8
# B12: TPP-5699, Hu6C12-24 Fab variant VL: (S49A, P54Q) (Fab, V domains shown)
# VH: B1 VH
# VL: B1 VL with Y35F, S49A, P54Q
# notes: as for B8
# B13: TPP-5837, Hu6C12-24 Fab variant VL: (S24R, A26S, S49A, P54Q, F95Y); VH: (I48M, D66G) (Fab, V domains shown)
# VH: B1 VH with I48M, D66G
# VL: B1 VL with S24R, A26S, Y35F, S49A, P54Q, F95Y
# notes: as for B8
# B14: TPP-5697, Hu6C12-24 Fab variant VH: (D66G, L70M, T72R) (Fab, V domains shown)
# VH: B1 VH with D66G, L70M, T72R
# VL: B1 VL with Y35F
# notes: as for B8
# B15: TPP-5676, Hu6C12-24 Fab variant VH: (I48M, D66G) (Fab, V domains shown)
# VH: B1 VH with I48M, D66G
# VL: B1 VL with Y35F
# notes: as for B8
# B16: TPP-5698, Hu6C12-24 Fab variant VL: (S24R, A26S) (Fab, V domains shown)
# VH: B1 VH
# VL: B1 VL with S24R, A26S, Y35F
# notes: as for B8
# B17: TPP-5675, Hu6C12-24 Fab variant VH: (I48M, L70M, T72R) (Fab, V domains shown)
# VH: B1 VH with I48M, L70M, T72R
# VL: B1 VL with Y35F
# notes: as for B8
# B18: TPP-5674, Hu6C12-24 Fab variant VH: (I48M, L70M) (Fab, V domains shown)
# VH: B1 VH with I48M, L70M
# VL: B1 VL with Y35F
# notes: as for B8
# B19: TPP-5695, Hu6C12-24 Fab variant VH: (L70M, T72R) (Fab, V domains shown)
# VH: B1 VH with L70M, T72R
# VL: B1 VL with Y35F
# notes: as for B8
# B20: TPP-5703, Hu6C12-24 Fab variant VL: (N91S) (Fab, V domains shown)
# VH: B1 VH
# VL: B1 VL with Y35F, N91S
# notes: as for B8
# B21: TPP-5701, Hu6C12-24 Fab variant VL: (S49A, P54Q, F95Y) (Fab, V domains shown)
# VH: B1 VH
# VL: B1 VL with Y35F, S49A, P54Q, F95Y
# notes: as for B8
# B22: TPP-5337, Hu6C12-24 Fab variant VH: (Q97A, T98R) (Fab, V domains shown)
# VH: B1 VH with Q97A, T98R
# VL: B1 VL with Y35F
# notes: as for B8
# B23: TPP-5356, Hu6C12-24 Fab variant VL: (F35Y, Y70F) (Fab, V domains shown)
# VH: B1 VH
# VL: B1 VL with Y70F
# notes: as for B8
# B24: TPP-5338, Hu6C12-24 Fab variant VH: (E1Q, I48M, L70M, T72R, K74T, R84S, D89E) (Fab, V domains shown)
# VH: B1 VH with E1Q, I48M, L70M, T72R, K74T, R84S, D89E
# VL: B1 VL with Y35F
# notes: as for B8
# B25: TPP-5339, Hu6C12-24 Fab variant VH: (E1Q, I48M, L70M, T72R, K74T, R84S, D89E, Q97A, T98R) (Fab, V domains shown)
# VH: B1 VH with E1Q, I48M, L70M, T72R, K74T, R84S, D89E, Q97A, T98R
# VL: B1 VL with Y35F
# notes: as for B8
# Target: T1, recombinant human GPA ectodomain
# Assay: ELISA, rec hGPA ectodomain
row,binding by ELISA relative to parental,Binder
1,0.35,B1
2,0.23,B2
3,0.17,B3
4,0.78,B4
5,1.35,B5
6,0.26,B6

# Target: T2, human glycophorin A on human red blood …
# Assay: SPR (Biacore), Fab on human RBC membranes;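 note: human RBC membranes captured on an L1 sensor chip, Fab fragments passed over as analyte, binding kinetics read by surface plasmon resonance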
# Experimental: (§1) Kinetic analysis of the antibody binding to human red blood cell membranes was also performed using surface plasmon resonance (SPR) using a Biacore instrument. In this assay membranes prepared from human red blood cells were attached to a L1 sensor matrix and antibodies were flowed over the RBC membranes.
# The binding kinetics of the affinity matured Fab antibodies was also measured.
row,binding result,Binder
1,binds,B7

# Target: T7, Cynomolgus monkey recombinant glycophorin A ectodomain (Cynomolgus monkey)
# T7 construct: extracellular domain
# Assay: ELISA, Fab on coated recombinant cyno GPA ectodomain
row,binding in ELISA relative to parental Fab,Binder
1,1 relative to parental Fab,B8
2,1.2 relative to parental Fab,B9
3,1.2 relative to parental Fab,B10
4,1.2 relative to parental Fab,B11
5,0.8 relative to parental Fab,B12
6,1.1 relative to parental Fab,B13
7,1.2 relative to parental Fab,B14
8,1.1 relative to parental Fab,B15
9,1 relative to parental Fab,B16
10,1 relative to parental Fab,B17
11,1.1 relative to parental Fab,B18
12,1.1 relative to parental Fab,B19
13,0.9 relative to parental Fab,B20
14,1 relative to parental Fab,B21

# Target: T3, purified human glycophorin A protein …
# Assay: ELISA, native hGPA
row,binding by ELISA relative to parental,Binder
1,0.52,B1
2,0.23,B2
3,0.33,B3
4,0.71,B4
5,1.16,B5
6,0.36,B6

# Target: T4, native human glycophorin A protein
# Assay: ELISA, Fab on coated native human GPA
row,binding in ELISA relative to parental Fab,Binder
1,1 relative to parental Fab,B8
2,1.8 relative to parental Fab,B9
3,0.1 relative to parental Fab,B22
4,1.3 relative to parental Fab,B10
5,2.5 relative to parental Fab,B11
6,3.8 relative to parental Fab,B12
7,0.7 relative to parental Fab,B23
8,0.5 relative to parental Fab,B24
9,5.2 relative to parental Fab,B13
10,1.2 relative to parental Fab,B14
11,1.3 relative to parental Fab,B15
12,1.6 relative to parental Fab,B16
13,0.8 relative to parental Fab,B17
14,1.4 relative to parental Fab,B18
15,0.9 relative to parental Fab,B19
16,2.1 relative to parental Fab,B20
17,0 relative to parental Fab,B25
18,4.6 relative to parental Fab,B21

# Target: T5, recombinant human glycophorin A …
# Assay: ELISA, Fab on coated recombinant human GPA ectodomain
row,binding in ELISA relative to parental Fab,Binder
1,1.1 relative to parental Fab,B8
2,1.8 relative to parental Fab,B9
3,0.1 relative to parental Fab,B22
4,1.2 relative to parental Fab,B10
5,2.4 relative to parental Fab,B11
6,3.2 relative to parental Fab,B12
7,0.6 relative to parental Fab,B23
8,0.4 relative to parental Fab,B24
9,4.5 relative to parental Fab,B13
10,1.3 relative to parental Fab,B14
11,1.5 relative to parental Fab,B15
12,1.7 relative to parental Fab,B16
13,1.1 relative to parental Fab,B17
14,1.5 relative to parental Fab,B18
15,1 relative to parental Fab,B19
16,1.1 relative to parental Fab,B20
17,0 relative to parental Fab,B25
18,3.9 relative to parental Fab,B21

# Target: T6, human glycophorin A in the red blood …
# Assay: ELISA, human RBC membranes;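 note: antibodies bound to isolated human red blood cell membrane ghosts coated on 96-well plates, tested 1.5 h at room temperature, bound antibody quantified with a detection antibody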
# Experimental: In order to evaluate binding of antibodies to GPA in the native context of the red blood cell membrane we made use of isolated red blood cell membranes, also called red blood cells ghosts. These membranes are prepared by first isolating red blood cells from citrated whole blood. Citrated whole blood is layered on to Ficol and centrifuged at low speed for 20 minutes to pellet the red blood cells. The supernatant containing plasma and other blood cells is discarded and the red blood cell pellet is subsequently washed 3 times in 10 cell volumes of phosphate buffered saline (PBS). A 10 ml pellet of purified red blood cells is resuspended in 30 ml of cold low osmorality 20 mM phosphate buffer (pH7.4) and incubated for 30 mins to break open the RBC. After Centrifugation at 10,000 rpm for 30 min at 5° C. the hemoglobin containing supernatant is discarded. To the membrane pellet another 30 ml of 20 mM phosphate buffer is added and the sample centrifuged again at 10,000 rpm for 30 min at 5° C. to pellet the membrane fraction. This wash and centrifugation step is repeated another 4 times. The red blood cell membranes are then resuspended in 20 mL of PBS to achieve an equivalent of approximately 2.5E9 cells/mL and stored frozen at −20° C. Binding of antibodies to RBC ghost can be measured by ELISA in which the RBC ghost suspension (5×10⁶ in 100 ul PBS) was added to each well of flat bottom 96-well ELISA microtiter plates (2HB, Immunolon) and the plates incubated overnight at 4° C. The plates were blocked with Starting blocking buffer (Thermo Fisher) for 2 hours at room temperature (RT). Antibodies or other test molecules were added to each well and incubated for 1.5 hours at RT. After 4 washes 100 ul of an appropriate detection antibody was added to each well and incubated for 1 hour at RT. After 4 washes the detection antibody was measured using appropriate detection reagents.
row,binding by ELISA relative to parental,Binder
1,0.43,B1
2,0.37,B2
3,0.35,B3
4,0.71,B4
5,1.18,B5
6,0.34,B6

# Target: T2, human glycophorin A on human red blood …
# Assay: SPR (Biacore), Fab over human RBC membranes, 1:1 fit;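 note: human RBC membrane preparations captured on an L1 sensor surface, with antibody passed over them as analyte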
# Experimental: as §1
Kd [nM],koff [s⁻¹],kon [M⁻¹ s⁻¹],Binder
87,0.036,420000,B17

# Target: T2, human glycophorin A on human red blood …
# Assay: ELISA, Fab on coated human RBC membranes
# Experimental: These membranes are prepared by first isolating red blood cells from citrated whole blood. Citrated whole blood is layered on to Ficol and centrifuged at low speed for 20 minutes to pellet the red blood cells. The supernatant containing plasma and other blood cells is discarded and the red blood cell pellet is subsequently washed 3 times in 10 cell volumes of phosphate buffered saline (PBS). A 10 ml pellet of purified red blood cells is resuspended in 30 ml of cold low osmorality 20 mM phosphate buffer (pH7.4) and incubated for 30 mins to break open the RBC. After Centrifugation at 10,000 rpm for 30 min at 5° C. the hemoglobin containing supernatant is discarded. To the membrane pellet another 30 ml of 20 mM phosphate buffer is added and the sample centrifuged again at 10,000 rpm for 30 min at 5° C. to pellet the membrane fraction. This wash and centrifugation step is repeated another 4 times. The red blood cell membranes are then resuspended in 20 mL of PBS to achieve an equivalent of approximately 2.5E9 cells/mL and stored frozen at −20° C. Binding of antibodies to RBC ghost can be measured by ELISA in which the RBC ghost suspension (5×10⁶ in 100 ul PBS) was added to each well of flat bottom 96-well ELISA microtiter plates (2HB, Immunolon) and the plates incubated overnight at 4° C. The plates were blocked with Starting blocking buffer (Thermo Fisher) for 2 hours at room temperature (RT). Antibodies or other test molecules were added to each well and incubated for 1.5 hours at RT. After 4 washes 100 ul of an appropriate detection antibody was added to each well and incubated for 1 hour at RT. After 4 washes the detection antibody was measured using appropriate detection reagents.
row,binding in ELISA relative to parental Fab,Binder
1,0.9 relative to parental Fab,B8
2,0.8 relative to parental Fab,B9
3,0.3 relative to parental Fab,B22
4,1 relative to parental Fab,B10
5,2.5 relative to parental Fab,B11
6,3.1 relative to parental Fab,B12
7,0.7 relative to parental Fab,B23
8,0.5 relative to parental Fab,B24
9,9.1 relative to parental Fab,B13
10,1.1 relative to parental Fab,B14
11,0.7 relative to parental Fab,B15
12,0.6 relative to parental Fab,B16
13,0.7 relative to parental Fab,B17
14,0.7 relative to parental Fab,B18
15,0.9 relative to parental Fab,B19
16,0.7 relative to parental Fab,B20
17,4.7 relative to parental Fab,B21
